In the series the test system is E. necator. Nature of the series: Leaf disc assay, dry inoculum (settling tower), decrease in disease severity / hyphal growth (Example 2). To be noted: decrease in disease severity (hyphal growth) relative to untreated control, value ± SE; for % decrease =/− SE TP1: time point 1 (untreated control hyphal growth ≥50%); for % decrease =/− SE TP2: time point 2.

B1: GS1837: dsRNA trigger SEQ ID NO 199; gene target UDP-glucose: glycoprotein glucosyltransferase 1 (nucleic acid)
DNA: AAAATCTAGGCAAATCCTTGAAAAACTCAGAGCTTTTTTTTTCAATAAAATTCAAGTCAAAAAAATTCAGATCTTTTCGATTTTCAGGAATAATCAATTTATTTCTGCGATTTATCGCTTGATTTAAAAATATACTAGGCACCCAAAAATCTTGACTTCTCACATTTTCTGTCCCAAGGACAATAGTTTGCTGAATTAATTGTAGATCTGTATATATCTGTTGACTCATTTTCTGAAGCCAGAATTCATCTTTCGGTATAACAACGCCATTAATGATAACTGGGGGAACAAGGTCATCTGCACAAATCCTGTCTACCCATTTTTGGGACGATTGAATTCGACTCTCGAGCTCATCTGATTTCAAAACTTCGTCGAAAATTATTCGGGTTTTATTAGTCTTAATTTTTGCTTTCTGGGTGATTTGGTCGAATACATCCTTACTGTTTAAGCTAAGCTTTGATTCATTTTGTGACCGTAAATATGCTATTGCAGTTTGTAATCCATAAATTTCAATAAGGTGATAAATTACTTTTGCTTCGATTGCAGCATTTGAGTTTCTGATGACGGGAATGAGACCAATTCGGAT
Consider B1, for which the “% decrease =/− SE TP1” value is 15 ± 7% and the “% decrease =/− SE TP2” value is 18 ± 8%.

B2: GS1840: dsRNA trigger SEQ ID NO 196; gene target Ubiquitin-conjugating enzyme E2-16 kDa (nucleic acid)
chain: TTGACTCTAGTTTTAAATACACATAAATGTTTGCTCAAACTATCTAGAGATTTTGCGTCTTGTAAAAAAATACTATATATGAAATATTATTGTGTACTATTGATGTATGAACTCGATGTGAGGTTTAAAATCTTATTGCTGCCATAGATAATCAAAAAATTATATTAATCCTATCCTTTTGGAACGATTCCTAATAGCAGATGTGTGTTCGTCTCTGTCCTTTGAATGACTCATTTCAGTCCAAATCTTCGTTGCTAATTCATCCACTCATTTCATAGCATATTTTTTTGTCGCTTTAACCGCCTCTTCATTAAATTCATTCCTGTTATTCCTGTATCTATCTGCTAATGCCGTTTCTACCGCATCATCAAGTACCGGCTCGGTCAGCATTTGCTGCGTTGCCATCAAAATATTGATGATTCGAGATGATGGTTTCCAGGCATCTGGTTTGAGAGCACCAATACACATACTACCCTGCTCATCAAAAGTCACATTTGGATGGTAGATACGAGTTTTGAACGATAGTTTTGGTGGCTTAAAAGGATAGTCTGAGGGGAGCGTTAAAAGAAGTTCAAAGTTA
Take B2: the “% decrease =/− SE TP1” value is reported as 21 ± 6% and the “% decrease =/− SE TP2” value was 11 ± 10%.

B3: GS1846: dsRNA trigger SEQ ID NO 135; gene target Calcium-transporting ATPase 2 (nucleic acid)
chain: AGACCTTCGGGTACTGCTACAACAATTACAGTGACTGTCACAATGAAAATTTGCAGAAATTGCTGACCTTTAACGGTTGGTGTAGCATCATTGTTAGGTAGTCTAGCCAGAAACTCAATGAATAAGACTGTAAATAATAATAGACCAGCTCCTCCTCCAAGTTTAGCTATATACTCTGCTAAATTGTTCAATTTTGACTGTAATGGCGTGATTTCCGGATCTTCACGGAGCGACATTAATGTTTTCCCATAACTAGAGTTTACACCAGTTGAAGTAACTAAAAATGTACCCACACCTTCAGTGACAGTAGCCCCAGACAAAATAAATGGATCTAATTTTTCTAGCTTTTCGTGGTTCGAGATAGCAGCATAAACTTGGTCTGCCGGATGCTTGCGAATAATATCGGACTCGCCAGTTATTTGAGACTCATCACATCTAAGATTATGCCCTCCAATAAAAATTCCATCAACAGGAATCATGTCGCCAGGTTCAAGATGTAAAACATCGCCTACAAGAACATCATAGATGGATATTTCCGAAGTTTTCCCGGAACGAGTCACATTTACAT
For B3, the “% decrease =/− SE TP1” value amounted to 22 ± 5%.

B4: GS1839: dsRNA trigger SEQ ID NO 194; gene target Thioredoxin (nucleic acid)
chain: CTGACCGGGGCGCTATTACGATTAAATGAGCTGTTTTCCCCAGCGCTATAAGCATCCAGGGAGAATAAGGTTACAAAATATAATCCGAAAAAAGATAAAAAAGTATTTATCAATTGTTTCAAATCGAATGGCTTAGACAACTGTGTACTCGGACTCTTAGTACTCCCTAGAGTTCGTCCTTCTGAGGTATATGATAGACCTTCTAGGCCTGCAAGTCTGATGACAGACTCGATAGCAGTTCTTAAAGTAGACTGATCAGCGCCACGGATCGTATTGGCAATAGAGCCAGATCGAAAGATAATGAAGCTGGGAAGTGCTCTAACTCCATAACGCTGAGAAATATCCTGGTGATTGTCTACATTGACCTTGACAAAGGTGATCCTGTTCGGTTTCGAGTATTTGGAAGCAAGACTTTCGAAGGTGGGAGCAATAGCATTACATGGGCCGCACCAGTCGGCATAAACTAACCCAGCCATTAGTAGATTTAGTTAATCGGTGACGACTACTTTTGAAGAGTTCAAAATTTTGTCAAACTGAGATGAGGATCTGATACGGATAGACATGCTTTCTTTCTGTTCAA
Take B4: the “% decrease =/− SE TP1” value came out at 20 ± 7% and the “% decrease =/− SE TP2” value is reported as 18 ± 7%.

B5: GS1843: dsRNA trigger SEQ ID NO 184; gene target Ubiquitin-like protein SMT3 (nucleic acid)
chain: ATAAACCTGCCTTAGATACTAAATCAGGAGTTGGCGTTTTATGGGATTCTATTAGAGTTGTAAATTTCAAAGATACTTTGATTGGATTTTCTTAGATTAACCTCGACGAGAATCGATTTTCTAGATTTTTGGCTAAATCATACGAATTCAAATTTTCTTAGTAAATTGGACAATGCGCGCCGTAAACATATCGGGATGAAATTTTTTAATAATAAAATCAATTGAAAATAATAAATTTATATCCTATTTAATCACCGCCAACAAGAAGTTCGTTTTCCTTACCTACCTAGAATTAGTTTTTAGATATCGTTCGATGTTTCGTGAATTTCAAATCCAGATGTTGCCGCCGATTTGTTCTTGATGCACCTCTAGCGTATCTCCATCTGCCATATCGAGAAACTCAGGACTATCAGTTTGTTGAACACGACTCCCTTCAAATAAGAATCGAACAGAAGAAAGTGATTTCCCTTGCCTCTCACAGAACGCGTCCATCAATTTCTTAAGTGGTGTTGTTCGTTTAATTTTGAAGAAGACTTCATTATTGTTATCTGTAACCTTGATATTTAAATGTTCA
For the molecule B5, the “% decrease =/− SE TP1” value is listed as 20 ± 5% and the “% decrease =/− SE TP2” value is recorded as 16 ± 8%.

B6: GS1848: dsRNA trigger SEQ ID NO 134; gene target ADP-ribosylation factor-like protein 3 (nucleic acid)
chain: CACCGCCCATAGCTCCTTCAAAAACGTGTTTGACAAATCCCTCTTTGATTCGTACCACTTCAACGCAATCTTCACGATCTTGCTTATTTGCTAATATCAACAATGGTACACCGTCAATTTCTCCATTGACCAAGACTTCCTCCAGAGCCAATCGACACTCTTCAAGGCGACCCGACTCATCATGCTCCAAATCTCCATCACCAATCTCAGTGCTATCAATGAGGAAAATAATGGCGTGGCATGATCGATAGTAAGATTTCCATAGTTTGCGAAGAGATTCCTGACCACCTACATCCCAAAGCTTAAGGTACATGTCAGGCAGCGTAATAGTGCTCACATTTTGTCCGACTGTAGGTCCCGTATTTATTTTGGGTGCAGGCGCATGAGGCAGGAACAGGAATTTAACTTGTTCGTGAAAAGTTGTCTTGCCGGCGTTATCAAGTCCCAGCAAAAGAACCGAGTATTCTTCTTTGCGCGTTGCGTAGTGGTAGAGACCCTTAACCAAATGATACATGTAGGTTTAGATCTACATAAATGGAGAAAGAAATCTTAATTAGAATGG
Take B6: the “% decrease =/− SE TP1” value stood at 18 ± 8% and the “% decrease =/− SE TP2” value came out at 7 ± 8%.

B7: GS1842: dsRNA trigger SEQ ID NO 130; gene target AP-1 complex subunit gamma-1 (nucleic acid)
chain: GCCAATGCCTTGAGCGTCTGAACAAGACTTCCAGTGAGTGGTCTAAACTTCTCTACTATATTCTCTTCACCTTCTTCATCAGCTTCTATGTCGGCCTCGCAAAGGCTAGTGACAAGTGTCAAGCCACAAAGGAGAACTCCATGATTTCGATCTGAAATAAGTGTTTCTGCTTTTTCGAAGAAATGCTCTTGAAGATCTGGCACTTTCTTGCAAATACGCATAGCACATAGAGCAGCCTTCTTACGAATATATGGGTTTGCTGTGGAAAGGAGATTTTCTATCTCTGGAAAGAGATCTCTTGACATTTCGATTGATGCGATGTTGCCTAGCGTACAGAGGGCTAGTCCGACTATGTATTGATTAGAGTGATTGAGATCGTTCTTTAAGGAGTTTGTAACTAAGGTAAGAACCTCTTGATTTTCGTCTAAAAGCAACATGGTCCCTAAGTAACCAAGGCGTTTGTCGGCGAAACGAGGAGACGCAAGTAATTTAAGGCATTCTATCTGGCCAAAGTGGGTTCTTTCCCCAAGTGTGAAGAGATATAACAACTTTGCAACGTTATTACGTCTGACATTG
B7: the “% decrease =/− SE TP1” value amounted to 6 ± 7%.

B8: GS1845: dsRNA trigger SEQ ID NO 191; gene target Singe-stranded TG1-3 DNA-binding protein (nucleic acid)
chain: CAGATACTGCCCAAACTACCTTCATAATTTTCCGAGCTACACACCAGAACCTCGAGTATTGACATTACGGAATCATCTCACCATTTAAAAGTTGCGGTTTAACTTAAGCTGTAGCCGCAACAGTTTCAGCTGTCCCAGCTAGTCCTTCTGATTGAAGTTTATCATTAGTAATCCCTTTAGCGATGGCGCCATTAGTACCTTCGGTTGAGTTGCCAACATTAGATACTTCGCCAGCACCATCAGATACATGTGTAGTTAATTCTTCAGAGGTCTTGTCCGGACTATCTATTGCGATCTTTACTGCAATCTCACGACCTTGAACTTCTTTTCCATTCATTTCGGCAACAGCCCTATTTTGAAGTTCATTAGATGCTAAGTTCACAAAGCCAAACCCACGGCCTTTCCGAGGTTCGTTGCGGGCCTGAAGCTTTTTAACCATGAATTTTGGAATAGGACGCAGAGCAATTTTGGCAGATACTGGTTCGTAATCGGCAAATAGTTCCTTTAACTTTTCCTCGGATAAGTCATAAGGAAGATTGGCAACCATAACTTTTGTCTTAGATGGAAC
For the molecule B8, the “% decrease =/− SE TP1” value was 23 ± 6% and the “% decrease =/− SE TP2” value turned out to be 24 ± 6%.

These data come from patent US12077763B2, “RNA-based control of powdery mildew” (Greenlight Biosciences, Inc., priority 2021, dated 2024).
